Results on six molecules are retold here after patent US20180237490A1 (HANMI PHARM, published 2018).

First the molecules themselves.
B1: oxyntomodulin analog (SEQ ID NO: 18) (peptide)
peptide: [Acetyl(2-(4-imidazolyl))]SQGTFTSDYSRYLDEEAVRLFIEWIRNGGPSSGAPPPSK
B2: oxyntomodulin analog (SEQ ID NO: 8) (peptide)
peptide: [Acetyl(2-(4-imidazolyl))]SQGTFTSDLSRQLEEEAVRLFIEWLMNK
B3: oxyntomodulin analog (SEQ ID NO: 3) (peptide)
peptide: [Acetyl(2-(4-imidazolyl))]SQGTFTSDYSKYLDERRAQDFVAWLKNTGPSSGAPPPS
B4: oxyntomodulin analog (SEQ ID NO: 25) (peptide)
peptide: H[Aib]QGTFTSDYSKYLDEKRAKEFVQWLMNTC
modifications: bridge 16-20
B5: oxyntomodulin analog (SEQ ID NO: 34) (peptide)
peptide: Y[Aib]QGTFTSDYSKYLDEKRAKEFVQWLMNTC
modifications: bridge 16-20
B6: oxyntomodulin analog (SEQ ID NO: 24) (peptide)
peptide: H[Aib]QGTFTSDYSKYLDEKRAKEFVQWLMNTC

Positions of bridges follow the written chain, without caps; N, C: chain ends. Non-standard residues stand in square brackets, D forms with d. No end group written: not given here. *: point of attachment. Acetyl(2-(4-imidazolyl)) = O=C(Cc1c[nH]cn1)*; Aib = CC(C)(N)C(=O)O

Chain of human glucagon receptor (P47871 26-477): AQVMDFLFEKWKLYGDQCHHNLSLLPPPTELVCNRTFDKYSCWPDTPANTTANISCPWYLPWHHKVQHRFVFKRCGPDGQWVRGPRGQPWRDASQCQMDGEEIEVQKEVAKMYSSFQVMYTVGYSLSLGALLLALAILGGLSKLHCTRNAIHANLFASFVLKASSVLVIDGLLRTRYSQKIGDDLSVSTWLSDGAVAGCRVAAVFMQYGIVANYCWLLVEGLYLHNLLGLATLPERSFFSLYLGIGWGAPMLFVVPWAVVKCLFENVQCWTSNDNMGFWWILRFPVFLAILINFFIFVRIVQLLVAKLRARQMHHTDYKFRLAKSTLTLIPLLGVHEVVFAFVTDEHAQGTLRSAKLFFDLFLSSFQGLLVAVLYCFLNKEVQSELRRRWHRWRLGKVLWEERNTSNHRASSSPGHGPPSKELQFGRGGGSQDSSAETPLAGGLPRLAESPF
Chain of human glucagon receptor (human) (P47871 26-477): as above

One assay deals with human GLP-1 receptor (human) (UniProt P43220). As to the kind of experiment: cell-based or functional assay.
Chain of human GLP-1 receptor (human) (P43220 24-463): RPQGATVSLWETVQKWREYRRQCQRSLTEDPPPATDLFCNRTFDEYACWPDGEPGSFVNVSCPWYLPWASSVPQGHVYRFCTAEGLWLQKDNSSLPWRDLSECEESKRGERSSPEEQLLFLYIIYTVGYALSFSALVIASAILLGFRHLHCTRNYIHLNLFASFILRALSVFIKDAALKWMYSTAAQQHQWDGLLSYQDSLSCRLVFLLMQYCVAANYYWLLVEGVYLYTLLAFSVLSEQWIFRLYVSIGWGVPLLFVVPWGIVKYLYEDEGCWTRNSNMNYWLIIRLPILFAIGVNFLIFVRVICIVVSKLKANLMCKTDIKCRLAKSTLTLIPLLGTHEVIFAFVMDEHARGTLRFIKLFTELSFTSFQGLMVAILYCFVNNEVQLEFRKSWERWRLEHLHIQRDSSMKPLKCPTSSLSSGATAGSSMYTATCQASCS
Molecule B1 returned an EC50 (nM), cAMP, CHO/GLP-1R of 96.3 nM.
Still for that read-out and setting: as for B2, the figure is 420 nM; as for B3, greater than 1000 nM.

A further assay has as its target human glucagon receptor (human) (UniProt P47871). As to the kind of experiment: cell-based or functional assay.
Consider B1, for which the EC50 (nM), cAMP, CHO/GCGR is greater than 1000 nM.
On the same count and under the same terms, as for B2, the figure is greater than 1000 nM; as for B3, 638 nM.

A further assay addresses human glucagon receptor (human, UniProt P47871 26-477). As to the kind of experiment: cell-based or functional assay.
As to B4, the “EC50 (nM), cAMP, CHO/GCGR” value worked out at 1.3 nM.
On the same count and under the same terms, in the case of B5 it was 1.04 nM; in that of B6, 6.95 nM.
